Data: US20090117104A1 (published 2009)
Numbering of substitutions follows the chain as printed. In names and notes the source's numbering stands. Ends that are not written are not given here.

B1: A2G GLP-2 mimetibody linker length variant, SEQ ID NO: 7 (Fc fusion, not shown: a dimerising Fc or GST)
chain: HGDGSFSDEMNTILDNLAARDFINWLIQTKITDGGGGSGGGGSCPPCP
modifications: cysteine pairing not given here; also: mimetibody: followed by CH2-CH3 domains not given here
B2: A2G GLP-2 mimetibody linker length variant, SEQ ID NO: 8 (Fc fusion, not shown: a dimerising Fc or GST)
chain: HGDGSFSDEMNTILDNLAARDFINWLIQTKITDGGGGSGGGGSGGGGSCPPCP
modifications: cysteine pairing not given here; also: mimetibody: followed by CH2-CH3 domains not given here
B3: GLP-2 mimetibody Pro substitution variant, SEQ ID NO: 42 (Fc fusion, not shown: a dimerising Fc or GST)
chain: HGDGSFSDEMNTILDNLAARDFINWLIQTKITDGSGGGSGALVPVSSESKYGPPCPPCP
B4: GLP-2 mimetibody Pro substitution variant, SEQ ID NO: 44 (Fc fusion, not shown: a dimerising Fc or GST)
chain: B3 chain with P44A, S47P
B5: GLP-2 mimetibody Pro substitution variant, SEQ ID NO: 43 (Fc fusion, not shown: a dimerising Fc or GST)
chain: B3 chain with P44A, S46P
B6: GLP-2 mimetibody Pro substitution variant, SEQ ID NO: 45 (Fc fusion, not shown: a dimerising Fc or GST)
chain: B3 chain with P44A, Y51P
B7: A2G GLP-2 mimetibody linker length variant, SEQ ID NO: 6 (Fc fusion, not shown: a dimerising Fc or GST)
chain: HGDGSFSDEMNTILDNLAARDFINWLIQTKITDGGGGSCPPCP
modifications: cysteine pairing not given here; also: mimetibody: followed by CH2-CH3 domains not given here
B8: A2G GLP-2 mimetibody linker length variant, SEQ ID NO: 9 (Fc fusion, not shown: a dimerising Fc or GST)
chain: HGDGSFSDEMNTILDNLAARDFINWLIQTKITDGGGGSGGGGSGGGGSGGGGSCPPCP
modifications: cysteine pairing not given here; also: mimetibody: followed by CH2-CH3 domains not given here
B9: A2S GLP-2 IgG4 mimetibody (Fc fusion)
chain: HSDGSFSDEMNTILDNLAARDFINWLIQTKITDGSGGGSGTLVTVSSESKYGPPCPPCPAPEAAGGPSVFLFPPKPDTLMISRTPEVTCVVVDVSQEDPEVQFNWYVDGVEVHNAKTKPREEQFNSTYRVVSVLTVLHQDWLNGKEYKCKVSNKGLPSSIEKTISKAKGQPREPQVYTLPPSQEEMTKNQVSLTCLVKGFYPSDIAVEWESNGQPENNYKTTPPVLDSDGSFFLYSRLTVDKSRWQEGNVFSCSVMHEALHNHYTQKSLSLSLGK
B10: A2G GLP-2 mimetibody linker length variant, SEQ ID NO: 10 (Fc fusion, not shown: a dimerising Fc or GST)
chain: HGDGSFSDEMNTILDNLAARDFINWLIQTKITDGGGGSGGGGSGGGGSGGGGSGGGGSCPPCP

Legend:
[1] = biological target: mutated human GLP-2R (human) (UniProt O95838); experiment: cell-based or functional assay
[2] = biological target: T1, mutated human GLP-2R (human, UniProt O95838 1-553); experiment: cell-based or functional assay
T1 chain: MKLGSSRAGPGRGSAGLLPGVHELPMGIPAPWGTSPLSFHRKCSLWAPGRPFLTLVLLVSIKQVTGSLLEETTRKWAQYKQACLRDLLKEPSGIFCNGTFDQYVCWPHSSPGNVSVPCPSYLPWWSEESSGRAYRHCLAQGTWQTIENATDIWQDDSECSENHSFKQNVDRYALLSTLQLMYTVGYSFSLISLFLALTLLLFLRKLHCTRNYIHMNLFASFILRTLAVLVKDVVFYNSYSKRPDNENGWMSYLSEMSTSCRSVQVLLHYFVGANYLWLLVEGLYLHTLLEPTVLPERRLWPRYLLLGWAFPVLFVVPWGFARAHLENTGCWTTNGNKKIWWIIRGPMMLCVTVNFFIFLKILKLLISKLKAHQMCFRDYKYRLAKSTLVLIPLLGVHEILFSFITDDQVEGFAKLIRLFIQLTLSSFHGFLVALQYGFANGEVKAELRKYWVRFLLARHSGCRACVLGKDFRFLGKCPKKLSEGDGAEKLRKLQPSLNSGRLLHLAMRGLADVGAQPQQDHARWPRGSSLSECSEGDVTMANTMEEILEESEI

| Binder | EC50 (nM), cAMP expression assay [1] | other results |
| --- | --- | --- |
| B1 | 22.5 nM | – |
| B2 | 12.7 nM | – |
| B3 | 3.6 nM | – |
| B4 | 7.7 nM | – |
| B5 | 4.8 nM | – |
| B6 | 5.8 nM | – |
| B7 | 40 nM | – |
| B8 | 4.6 nM | – |
| HGDGSFSDEMNTILDGQAARDFINWLIQTKITD [GLP-2(A2G, N16G, L17Q)] | – | activity in the cAMP expression assay relative to wild type GLP-2 [2]: 2 fold less |
| HGDGSFSDEMNTILDNQAARDFINWLIQTKITD [GLP-2(A2G, L17Q)] | – | activity in the cAMP expression assay relative to wild type GLP-2 [2]: 3 fold less |
| B9 | – | potency in the cAMP expression assay relative to the corresponding peptide [2]: ~4 fold less |
| B10 | 2.1 nM | – |
